Consider two molecules from patent US20220256794A1, “TERPENE SYNTHASES AND TRANSPORTERS” (The State of Israel, Ministry of Agriculture & Rural …, priority 2019, published 2022).

The experiment in a line: Terpene synthase activity assay with FPP. The note with it: TPS expressed in E. coli; 10 μM FPP, overnight at 30° C., SPME GC-MS. The experiment is classed as biochemical. The method, then: Putative terpene synthase genes were synthesized by the TWIST Co., and cloned into Novagen pET-28a(+) with a 6×His tag at its' N-terminus. The recombinant plasmid was then sequenced for authentication and transformed into BL21(DE3) pLysS and pLysE strains of E. coli (Agilent Technologies) for heterologous expression. An overnight culture was used to inoculate a 20-200 mL culture, induced with 0.1 mM IPTG at an OD 600 nm >0,8 for initiation of recombinant protein translation then incubated at 18° C. and 250 RPM overnight. The cells were collected by centrifugation and the recombinant enzymes were extracted either as a crude extract or purified on a Ni-NTA agarose resin as previously described [Gonda I. et al., The Plant Journal (2013) 61, 458-472]. […]
For solid-phase microextraction (SPME) analysis, a 57298-U SPME fiber assembly Divinylbenzene/Carboxen/Polydimethylsiloxane (DVB/CAR/PDMS, Supelco) needle size 23 ga, StableFlex, was used with an autosampler and analyzed by GC-MS as previously described [Davidovich-Rikanati R. et al., Nature Biotech (2007) 25:899-901; Davidovich-Rikanati R. et al., Plant J (2008) 56:228-238]. […]

B1: 792-3: Cannabis terpene synthase gene product, amino acid SEQ ID NO: 8 (protein)
chain: MSYQVLASSQNDKVSKIVRPTTTYQPSIWGERFLQYSISDQDFSYKKQRVDELKEVVRREVFLECYDNVSYVLKIVDDVQRLGLSYHFENEIEKALQHIYDNTIHQNHKDEDLHDTSTRFRLLRQHGFMVSSNIFKIFKDEQGNFKECLITDILGLLSLYEASHLSYIGENILNEALAFTTTHLHQFVKNEKTHPLSNEVLLALQRPIRKSLERLHARHYISSYENKISHNKTLLELAKLDFNLLQCLHRKELSQISRWWKEIDFVHKLPFARDRIVELYLWLLGVFHEPELSLARIISTKVIALASVADDIYDAYGTFEELELLTESINRWDLNCADQLRPECLQTFYKVLLNCYEEFESELGKEESYKVYYAREAMKRLLGAYFSEARWLHEGYFPSFDEHLKVSLISCGYTMMIVTSLIGMKDCVTKQDFEWLSKDPKIMRDCNILCRFMDDIVSHKFEQQRDHSPSTVESYMRQYGVSEQEACDELRKQVINSWKEINKAFLRPSNVPYPVLSLVLNFSRVMDLLYKDGDGYTHIGKETKNSVVALLIDQIP
modifications: Terpene Synthase Gene Amino acid sequence of the 45 identified gene products
Turning to B1, the “Sesquiterpenes produced with FPP” value was “caryophyllene, humulene”.

B2: AG046-1: Cannabis terpene synthase gene product, amino acid SEQ ID NO: 36 (protein)
chain: MIITGVISSSTPIFKDQPAAIVRRSGNYKPTLWDAHFFQSLQVIYTEESYGKRINELKEDVRRILEKEAENPLVKLEQINDLSRLGISYHFEDQIKTILNLTFNNNNALWKKDNLYATALHFKLLRQYGFSPVSSEVFNAFKDEKKEFKESLSKDVKGMVCLYEASFYSFRGEPILDEARDFTTKHLKQYLMTRQSQFTRVDHHDDDDHDLVKLVEHALDLPLHWRLPRLEARWFIDMYAERNYDMNPTFLDFAKLDYNFVQSAYQKELKYISRWWSGSRLTERLPFARDRVVEIFYSAVALKYEAEFGFVRTVMTKIGLLLTLMDDIYDVYGTLDELQLFLEAIERWNINELDQLPDYMKILFVAFYNNVNEISYYVLKENGIHTIKYLKKALGDLCKCYMEEAKWFHSGHIPSLEEFIENGWKSITIPLCLIYHYCLITTSITEQDMEHLLQYPTILRVSGTVFRFIDDLGTSSDELERGDNPSSIQCYMREKGVSENESREHIWNLISEGWKEINEVKASNSPYSQVFIESAIDFVRGAMEMYHKGDGFGTNQDRYLKTKVVNMFFDPIPI
modifications: Terpene Synthase Gene Amino acid sequence of the 45 identified gene products
In the case of B2, the “Sesquiterpenes produced with FPP” value is “bisabolene”.
